{
  "source": "patent US20220305066A1",
  "binders": {"B1": {"name": "EpCAMscFv-HveA adapter (fused protein of scFv for EpCAM and HveA82 extracellular domain of HVEM) (protein)", "chain": "DIQMTQSPSSLSASVGDRVTITCRSTKSLLHSNGITYLYWYQQKPGKAPKLLIYQMSNLASGVPSRFSSSGSGTDFTLTISSLQPEDFATYYCAQNLEIPRTFGQGTKVELKRATPSHNSHQVPSAGGPTANSGTSGSEVQLVQSGPGLVQPGGSVRISCAASGYTFTNYGMNWVKQAPGKGLEWMGWINTYTGESTYADSFKGRFTFSLDTSASAAYLQINSLRAEDTAVYYCARFAIKGDYWGQGTLLTVSSGGGGSEFLPSCKEDEYPVGSECCPKCSPGYRVKEACGELTGTVCEPCPPGTYIAHLNGLSKCLQCQMCDPAMGLRASRNCSRTENAVCGHHHHHH"}},
  "target": "EpCAM (epithelial cell adhesion molecule) on cells (UniProt P16422)",
  "sequence (P16422 24-314 limits assumed)": "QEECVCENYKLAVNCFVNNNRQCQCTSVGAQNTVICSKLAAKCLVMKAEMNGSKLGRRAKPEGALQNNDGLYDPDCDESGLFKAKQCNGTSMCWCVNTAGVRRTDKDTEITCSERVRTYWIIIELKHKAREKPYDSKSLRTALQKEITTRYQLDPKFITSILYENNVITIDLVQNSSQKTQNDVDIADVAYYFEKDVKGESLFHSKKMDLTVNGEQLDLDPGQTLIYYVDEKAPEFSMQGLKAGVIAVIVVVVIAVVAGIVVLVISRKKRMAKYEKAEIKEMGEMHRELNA",
  "experiment": "cell-based or functional assay",
  "data": [
    {"binder": "B1", "values": [
      {"measurement": "cell viability of BT-474 cells 5 days after infection with EADa-S virus", "value": 34, "unit": "%"},
      {"measurement": "cell viability of MCF-7 cells 5 days after infection with EADa-S virus", "value": 31, "unit": "%"},
      {"measurement": "cell viability of MDA-MB-453 cells 5 days after infection with EADa-S virus", "value": 19, "unit": "%"}
    ]}
  ]
}
